B1: TPR t1 (parent)
chain: GACCAAUCUGCCCUCAGAGCUCGAGAACAUCUUCGGAUGCAGAGGAGGCAGGCUUCGGUGGCGCGAUAGCGCCAACGUCCUCAACCUCCAAUGCAUCCCACCACAUGAUGAUGCCUGAAGAGCCUUGGUUUUUUG

Variants of: B1
Assay: polymerase ribozyme fitness, log enrichment relative to wild type (log ratio); higher = more active; in vitro selection for triplet polymerase activity
How it was run: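 Mutant libraries of both subunits of a heterodimeric triplet polymerase ribozyme were PCR-built, transcribed, and selected once in triplicate, with frozen incubation at −7 °C and capture of gel-excised extended constructs on streptavidin beads before RT-PCR. Illumina sequencing of input and output libraries was filtered to genotypes with ≥10 input reads and ≥1 read per output. Fitness is the logarithm of genotype enrichment over wild-type enrichment, using inverse-variance-weighted replicate averages. The logarithm is base 2.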

Row | Variant | polymerase ribozyme fitness (log ratio)
1 | A5C C22A C88G | -5.51
2 | C4U U32A C89A U106C G110A | -5.64
3 | C4U G113U C124U | -4.72
4 | A5C C8A C28U U54C A84G | -3.62
5 | C4U C70U G77C | -1.36
6 | C4G C28A C40G G48U C49G G63A U96G C114G U116G | -6.86
7 | A5C C11G A41C G71C C104U | -2.45
8 | C4U U14C G60A A75U | -3.07
9 | C4U G10A U21A G44A A83U | -1.59
10 | C4U U7G C22G U55G A91C C124A | -3.16
11 | C4G G61U A66U C94A C123U U132A | -1.51
12 | C4G A66G C72U C80U C123A | -2.88
13 | C4U A41C A111U A119C | -6.22
14 | C4G C73U C101A U129A | -1.48
15 | C4U U7G A27U A119G | -1.81
16 | C4G G52A C72U A91U A119U | -4.02
17 | C4U C53U C64U A84G | -1.67
18 | A5C A83G U106A C123U G135A | -1.09
19 | A5C A29U A121G | -0.781
20 | A5C C13U | -0.876
21 | A5C C13U A46C C64U U78A C79G G113C | -5.7
22 | A5C C11G C85G | -1.61
23 | C4G C72A C85G C104U | -2.16
24 | C4G A50U | -3.4

Row | Variant | polymerase ribozyme fitness (log ratio)
25 | A5C A41U | -2.41
26 | A5C C11G U87G C89A G120C | -0.971
27 | C4G C8G A50U G113C C115U | -5.07
28 | C4U U7A G69A | -2.49
29 | A5C C8G C12U C72U C94A | -1.48
30 | C4U G48A G52A U92A | -5.54
31 | C4G A121C | 0.946
32 | C4U C15A G45C G61U C72A | -2.72
33 | C4G A29G A74C A83U | -4.38
34 | C4A U14A | -5.35
35 | C4G G36U A90C C124U | -3.18
36 | C4U C11A C76U C82G G110U | -5.02
37 | C4A U78A G93C C115A | -2.87
38 | C4U C12A C53A C56U C89G A121G | -1.89
39 | C4G A43U A46G C62U G63A U78C C114U G117U | -5.92
40 | C4A U7A G71A | -1.76
41 | C4U G45U C124A | 0.121
42 | C4U C22G A43U G48U C49U C97U | -4.83
43 | C4G U92C | -3.05
44 | C4U G45C | -2.12
45 | C4A G135U | -2.46
46 | C4A G60U G127A | -2.51
47 | C4A G39C A75G C114G G120A | -5.14
48 | C4A U7C C49G A50U C88G | -2.88

Row | Variant | polymerase ribozyme fitness (log ratio)
49 | A5C C15A C64U U81C C88U | -3.57
50 | C4G A46U G47A | -4.4
51 | C4U G120A | 0.077
52 | C4G G60A | -1.91
53 | C4G G60U | -1.18
54 | C4U C53A C64U C88A C123U G127U U131G | -1.35
55 | C4A U59C A90C | -3.84
56 | C4U C12U A16G C40A G57U | -2.2
57 | C4U U9G C11A C72U A74U U106A | -0.724
58 | C4U C40U C62A | -2.28
59 | C4A U9G C40U G44A U55C C88A G120C | -3.07
60 | C4U C11G C101U | -0.238
61 | C4U U7A G93C C102A | -3.52
62 | C4U C73G A118G | -1.58
63 | C4U C8G C13A U21G C70U G120C U132C | -0.598
64 | C4U C62U A91U G120A | -2.44
65 | C4U A41U U112A G113C G122C | -2.19
66 | C4U U87C | -0.694
67 | C4G U9G A43U | -1.6
68 | C4U A37U G48U C73G C98A U106G U112A | -5.16
69 | C4U A43U G63C G93A | -3.29
70 | C4U A6U U78G C88U A91U A95U | -3.57
71 | C4U C12U | 0.148
72 | C4U G36A C70A G71A A90G U112G | -6.28

Row | Variant | polymerase ribozyme fitness (log ratio)
73 | C4U U9G G35A G47U G48U G63A C104U G113U | -6.85
74 | C4U G52U G61C C124G U131G | -0.648
75 | A5C A91U | -2.68
76 | C4U C53U G69A U78A C86U | -3.99
77 | C4A G42A | -2.74
78 | C4G C8U A18U A43U U81A | -2.85
79 | C4G A27U G36C C49G C79U C123G | -5.37
80 | C4G U9G U116C G128U U131C | -0.342
81 | C4U A43C G45A A74U C124A | -2.29
82 | C4U A74U | -1.1
83 | C4U U9C C82U | 0.225
84 | C4G G17U C53U C56A | -3.68
85 | A5C | -0.52
86 | C4U C8A C53U G69U U96G G128C | -1.46
87 | C4A U7G G35U G63C G65U C98U G117U | -6
88 | C4U A50G C62U G110A | -1.24
89 | C4U C11A G44C C82G A121C G127A | -0.143
90 | A5C A24G G48U G69U G110A C124U U131C | -2.03
91 | C4G A46U C53U C70A | -2.97
92 | C4G U9G G10C | -0.357
93 | C4U G52U G128C U131A | -3.4
94 | C4G G120C | -1.15
95 | C4G G120A | -0.396
96 | C4G C11A A16G A37U G69A G77C G113U C124U | -4.9

Row | Variant | polymerase ribozyme fitness (log ratio)
97 | C4G C53A C56U C99U U130G | -5.15
98 | C4A G17A C53G C70G U106G G113A C115U U131A | -6.14
99 | C4A G52A C73A | -2.51
100 | C4U G48C G69C C101G | -4.61
101 | A5C C12A U96C G128C | -2.92
102 | C4U G17A | -2.72
103 | C4U G71U C114G U132A | -3.02
104 | C4G C101U | -2.36
105 | C4U G69C C97U G122A | -2.49
106 | C4U U96A | -1.6
107 | C4G C13U C20G A27U G71U U106A U125G | -5.01
108 | C4U G52U C73A | -0.845
109 | C4U G51A G61U C82G C88U G93C | -5.15
110 | C4G A5U C8U C101G C104U | -3.99
111 | C4U A50C A74U C79G G117A | -4.91
112 | C4U A75U A95C U96A G120A | -1.94
113 | C4A U14G C49A C73G C86U | -4.9
114 | C4A U7G A91U | -4.91
115 | C4U A6U A91U G113U | -3.89
116 | C4U G58A C124U | 0.263
117 | C4G A50U C72G | -3.42
118 | C4G U7C G69U | -0.0887
119 | C4U C102U C124U | -0.637
120 | C4U C34G | -5.92

Row | Variant | polymerase ribozyme fitness (log ratio)
121 | C4G C13U C31G C34G G63A C79U G113U | -7.83
122 | A5C C12A A43G G60C | -4.18
123 | C4G A6U C72G A84C C115A | -5.17
124 | C4A C102U C123A | -3.39
125 | A5C C12U C73A C99U | -4.28
126 | C4U A26G C28U C40A C64A C123U | -6.51
127 | C4G U9A C89A C115A G117C | -4.91
128 | A5C A27U C73U C123U G128A | -3.34
129 | C4A G52C C114U | -6.04
130 | C4U C88A | -0.437
131 | C4A U59A C88A | -2.43
132 | C4A G128C | -1.53
133 | C4U G17U G60U C89A | -4.98
134 | C4A U9G G42C | -3.15
135 | C4G G36U | -2.8
136 | C4U C79A U92C | -3.5
137 | C4A G10U A84G | -2.55
138 | C4U C82U | -0.905
139 | C4U C22U | -4.42
140 | C4G C12A G45A G71U A100U U106A | -2.68
141 | C4U C49U A66G | -2.3
142 | C4U A5G U38A C70U G120A | -1.12
143 | A5C C15A | -1.17
144 | C4U C70U C85G C86U | -2.03

Row | Variant | polymerase ribozyme fitness (log ratio)
145 | C4G G10U G63U G69U G120A | 0.883
146 | C4U U96A U106A G122A | -0.892
147 | C4U A6C C13U G48U C49G C53U G113C | -3.03
148 | C4A G110A | -2.19
149 | C4U C12A G44A U116A | -6.42
150 | C4U A27U | -2.79
151 | C4G A6U A27U A111U | -4.8
152 | A5C A50C A74U U96G | -3.17
153 | C4U C56A C114A C124U | -3.31
154 | C4U C15U G57U A100C | -4.18
155 | C4G C8G | -0.396
156 | C4G C8U C72A U78A U87A | -2.03
157 | C4G G47A | -2.34
158 | C4G C13A G60A A66G C85A A121C | -2.37
159 | C4U C8G C53U | 0.711
160 | C4U G48U G52U C73U A90U C124G | -2.07
161 | C4G C80A | -3.83
162 | C4G U59C G65A C85U G110C | -5.92
163 | A5C A27C | -3.97
164 | C4U U9G A103U C124G | -3.47
165 | C4U A43U G69C | -4.04
166 | C4A G63C G77C G128U | -3.69
167 | C4U A29C G48U C56G A119G | -3.08
